The record followed here is patent US20220251193A1 (RAMOT AT TEL AVIV UNIVERSITY, published 2022).

The experiment addresses T1, Sema3A(65) (human (by the filing's definition of …, UniProt Q14563 21-555, limits assumed)).
T1 construct: also called recombinant pure Sema3a protein; 65 kDa furin cleavage
T1 sequence: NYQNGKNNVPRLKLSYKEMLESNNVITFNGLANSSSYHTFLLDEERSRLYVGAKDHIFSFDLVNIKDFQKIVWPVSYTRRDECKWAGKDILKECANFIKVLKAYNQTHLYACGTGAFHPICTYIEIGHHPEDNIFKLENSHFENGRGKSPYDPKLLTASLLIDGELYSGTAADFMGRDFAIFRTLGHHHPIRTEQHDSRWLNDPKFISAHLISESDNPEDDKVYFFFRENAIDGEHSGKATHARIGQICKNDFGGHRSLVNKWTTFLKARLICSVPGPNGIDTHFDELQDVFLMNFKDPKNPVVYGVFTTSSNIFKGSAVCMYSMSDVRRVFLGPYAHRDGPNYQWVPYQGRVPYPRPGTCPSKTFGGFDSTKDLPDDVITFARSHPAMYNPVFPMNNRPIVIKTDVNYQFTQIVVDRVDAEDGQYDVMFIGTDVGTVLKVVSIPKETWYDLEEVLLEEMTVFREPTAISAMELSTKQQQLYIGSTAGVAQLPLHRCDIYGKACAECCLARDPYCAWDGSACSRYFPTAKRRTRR
Kind of experiment: ELISA on coated antigen (5 µg/ml), Fab in 2 fold dilutions from 1 µM, detection with HRP goat anti human H+L. How it is done: FIGS. 1A-B are graphs illustrating purification and ELISA binding evaluation of anti Sema3a isolated Fabs for estimated Kd values. The analyzed antibody was added in 2 fold dilution series starting at 1 μM to the antigen (Sema3A) coated wells (5 μg/ml). Bound antibodies were detected with horseradish peroxidase (HRP)-conjugated goat anti human H+L secondary antibodies. Fab 3H4 (FIG. 1A), L4B8 and L4E6 (FIG. 1B) are presented.
Background: An ELISA detects its analyte on a solid surface through an enzyme-linked reagent.

B1: Fab L4B8 (Fab, V domains shown)
VH: EVQLLESGGGLVQPGGSLRLPCAASGFTVGLYNINWVRQAPGKGLAWVSTISGSGLNTYYSDPVKGRFTISRDNSKNTLYLQMNSLRAEDTAVYYCARDEDTYAFNWGQGTLVTVSS
VL: DIVLTQSPGTLSLSPGERATLSCRASQSVSSSYLAWYQQKPGQAPRLLIYGASTRAPGIPDRFSGSGSGTDFTLTISRLEPEDFAVYYCHQRGSGDTFGPGTKVEIK
notes: C-terminal His tag on the Fd fragment
As for B1, the “EC50 (read off the curve)” value is around 100 nM.

B2: Fab L4E6 (Fab, V domains shown)
VH: EVQLLESGGGLVQPGGSLRLSCAASGFTFSNFVMNWVRQAPGKGLEWVSRINTDGTSTNYADSVTGRFTISRDNSKNTLYLQMNSLRAEDTAVYYCARDYPLRRLMYYYYGMDVWGQGTLVTVSS
VL: DIVLTQSPGTLSLSPGERATLSCRASQTISSNLAWYQQKPGQAPRLLIYGASSRATGIPDRFSGSGSGTDFTLTISRLEPEDFAVYYCQQYSWSPRVYSFGQGTKLEIK
notes: as for B1
Regarding B2, the “EC50 (read off the curve)” value was around 200 nM.

Usually EC50 (read off the curve) stands for the midpoint of the concentration-response curve. Higher therefore signals weaker potency.
